According to paper PMC11944577:

Target: T1, MgrA (Staphylococcus aureus XN108) (UniProt P0C1S0)
T1 sequence: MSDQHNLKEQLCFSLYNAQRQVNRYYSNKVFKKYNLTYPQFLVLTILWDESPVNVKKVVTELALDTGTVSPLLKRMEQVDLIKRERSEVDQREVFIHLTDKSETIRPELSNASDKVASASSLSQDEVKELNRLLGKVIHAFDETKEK
Assay: competition

TTTACGTGCAGCACGTTCACGTACCTCAAAGTTACCGAAACCAATTAATTGTACTTTTTCACCTTTAGCAAGTGAGTTTTGGATTGATTCGAATACAGCATCTACTGCTGAACCAGCTTCTTTTT (double strand) [hu fragment (competitor)]
binding: no binding
